Experimental data published in patent publication US20230365667A1 (Merck Sharp & Dohme, published 2023).
Changes are numbered by the printed parent chain.

B1: vhhLib05-21 (VHH)
VHH: EVQLLESGGGLVQPGGSLRLSCAASGFTFSNYAMSWVRQAPGKQREWVSVISGNGSSTYYADSVKGRFTISRDNSKNTLYLQMNSLRAEDTAVYYCARLVQLPWVPISAFDVWGQGTLVTVSS
notes: The entry as printed includes a doubled TLVTVSS and HHHHHH; also called 16BHK
B2: vhhLib02-53 (VHH)
VHH: EVQLVESGGGLVQPGGSLRLSCAASGFTFSRYLMSWYRQAPGKQRELVGAIASGGVTYYADSVKGRFTISRDNSKNTLYLQMNSLRAEDTAVYYCARGNPSERLYYYFDYWGQGTLVTVSS
notes: The entry as printed includes HHHHHH; also called 06BHK
B3: vhhLib05-33 (VHH)
VHH: EVQLLESGGGLVQPGGSLRLSCAASGFTFSSYAMSWVRQAPGKQREWVSAISGSGGSTYYADSVKGRFTISRDNSKNTLYLQMNSLRAEDTAVYYCARLQGVQSDEVYYNYFDVWGQGTLVTVSS
notes: The entry as printed includes a doubled TLVTVSS and HHHHHH; also called vhbLib05-33
B4: vhhLib05-28 (VHH)
VHH: B3 VHH with S25A, Q100S, G101H, V102N, Q103S, S104Q, D105G, E106T, Y108V, V114I
notes: The entry as printed includes a doubled TLVTVSS and HHHHHH
B5: vhhLib05-78 (VHH)
VHH: B3 VHH with S35T, Q100A, G101T, V102H, Q103V, S104D, D105N, E106G, V107L, Y108G
notes: as for B4
B6: vhhLib05-83 (VHH)
VHH: EVQLLESGGGLVQPGGSLRLSCAASGFTFSNYAMSWVRQAPGKQREWVSAISGSGGSTYYADSVKGRFTISRDNSKNTLYLQMNSLRAEDTAVYYCARLFLQQADGLYYYYAFDPWGQGTPVTVSS
notes: The entry as printed includes a doubled TLVTVSS-like stretch and HHHHHH
B7: vhhLib02-64 (VHH)
VHH: EVQLVESGGGLVQPGGSLRLSCAASGFTFSGYFMSWYRQAPGKQRELVSVINSGGSTYYADSVKGRFTISRDNSKNTLYLQMNSLRAEDTAVYYCARGRVATGGGYGFVHYFDVWGQGTLVTVSS
notes: The entry as printed includes HHHHHH
B8: vhhLib02-21 (VHH)
VHH: EVQLVESGGGLVQPGGSLRLSCAASGFTFSLYTMSWYRQAPGKQRELVSAISSGGSTYYADSVKGRFTISRDNSKNTLYLQMNSLRAEDTAVYYCARYDYSWWYFDLWGQGTLVTVSS
notes: as for B7
B9: vhhLib01-34 (VHH)
VHH: QVQLVESGGGLVQPGGSLRLSCAASGSIFSVNRMGWYRQAPGKQRELVAAIISGGATNYADSVKGRFTISRDNAKNTVYLQMNSLKPEDTAVYYCARRPAPNGRYHSWYAFDYWGQGTLVTVSS
notes: as for B7
B10: vhhLib01-86 (VHH)
VHH: QVQLVESGGGLVQPGGSLRLSCAASGSIFSANHMGWYRQAPGKQRELVAAILSGGVTNYADSVKGRFTISRDNAKNTVYLQMNSLKPEDTAVYYCARGQVDTKYGYYYFDSWGQGTLVTVSS
notes: The entry as printed includes a doubled TLVTVSS and HHHHHH; also called vhbLib01-86
B11: vhhLib01-48 (VHH)
VHH: QVQLVESGGGLVQPGGSLRLSCAASGSIFSANIMGWYRQAPGKQRELVAAIVSGGYTNYADSVKGRFTISRDNAKNTVYLQMNSLKPEDTAVYYCARDQDAFDHVGQYFDHWGQGTLVTVSS
notes: as for B7
B12: vhhLib01-2 (VHH)
VHH: QVQLVESGGGLVQPGGSLRLSCAASGSIFSANHMGWYRQAPGKQRELVAAISSGGLTNYADSVKGRFTISRDNAKNTVYLQMNSLKPEDTAVYYCARHQTKIYNLHYYYFDYWGQGTLVTVSS
notes: as for B7
B13: vhhLib05-25 (VHH)
VHH: EVQLLESGGGLVQPGGSLRLSCAASGFTFSSYAMSWVRQAPGKQREWVSAISGSGGSTYYADSVKGRFTISRDNSKNTLYLQMNSLRAEDTAVYYCARHRQADGITYFDIWGQGTLVTVSS
notes: as for B4
B14: vhhLib05-5 (VHH)
VHH: B13 VHH with H99L, R100D, Q101Y, A102T, T106N, I110Y
notes: as for B4
B15: vhhLib05-14 (VHH)
VHH: B13 VHH with H99L, R100S, Q101I, A102V, G104V, I105V, Y107V, I110V
notes: as for B4
B16: vhhLib02-26 (VHH)
VHH: EVQLVESGGGLVQPGGSLRLSCAASGFTFSAYIMSWYRQAPGKQRELVGAIVSGGLTYYADSVKGRFTISRDNSKNTLYLQMNSLRAEDTAVYYCARHWRWYDSNLVFDLWGQGTLVTVSS
notes: as for B7
B17: vhhLib01-49 (VHH)
VHH: QVQLVESGGGLVQPGGSLRLSCAASGSIFSHNTMGWYRQAPGKQRELVAAINSGGSTNYADSVKGRFTISRDNAKNTVYLQMNSLKPEDTAVYYCARYIQTYTWGYFDYWGQGTLVTVSS
notes: as for B7
B18: vhhLib01-3 (VHH)
VHH: QVQLVESGGGLVQPGGSLRLSCAASGSIFSFNLMGWYRQAPGKQRELVAAINSGGSTNYADSVKGRFTISRDNAKNTVYLQMNSLKPEDTAVYYCARDYTVYVSYYDGRFDYWGQGTLVTVSS
notes: as for B7
B19: vhhLib02-37 (VHH)
VHH: EVQLVESGGGLVQPGGSLRLSCAASGFTFSDYVMSWYRQAPGKQRELVSAIISGEDTYYADSVKGRFTISRDNSKNTLYLQMNSLRAEDTAVYYCARYVHKSTWYYFDHWGQGTLVTVSS
notes: The entry as printed includes HHHHHH; also called vhbLib02-37
B20: vhhLib02-93 (VHH)
VHH: EVQLVESGGGLVQPGGSLRLSCAASGFTFSDYHMSWYRQAPGKQREPVSVINSGGYTYYADSVKGRFTISRDNSKNTLYLQMNSLRAEDTAVYYCARAQAAHYLYGYFDIWGQGTLVTVSS
notes: as for B7
B21: vhhLib01-58 (VHH)
VHH: QVQLVESGGGLVQPGGSLRLSCAASGSIFSPNHMGWYRQAPGKQRELVAAIYSGGTTNYADSVKGRFTISRDNAKNTVYLQMNSLKPEDTAVYYCARRTFLRGWSGYLPWFDVWGQGTLVTVSS
notes: as for B7
B22: vhhLib01-75 (VHH)
VHH: QVQLVESGGGLVQPGGSLRLSCAASGSIFSSNRMGWYRQAPGKQRELVAAIFSGGHTNYADSVKGRFTISRDNAKNTVYLQMNSLKPEDTAVYYCARPVDWSGPFDIWGQGTLVTVSS
notes: as for B7
B23: vhhLib05-49 (VHH)
VHH: EVQLLESGGGLVQPGGSLRLSCAASGFTFSSYAMSWVRQAPGKQREWVSAISGSGGSTYYADSVKGRFTISRDNSKNTLYLQMNSLRAEDTAVYYCARDTNQPYHGRYVYTYDFDVWGQGTLVTVSS
notes: also called 20BHK
B24: vhhLib05-8 (VHH)
VHH: EVQLLESGGGLVQPGGSLRLSCAASGFTFSSYAMSWVRQAPGKQREWVSAISGSGGRTYYADSVKGRFTISRDNSKNTLYLQMNSLRAEDTAVYYCARHSIPVDGIVAFDHWGQGTLVTVSS
notes: The entry as printed includes a doubled TLVTVSS and HHHHHH; also called 13BHK
B25: vhhLib05-10 (VHH)
VHH: B24 VHH with R57S, H99V, S100V, I101K, P102V, V103D, G105I, I106V, V107H, H111I
notes: as for B4
B26: vhhLib02-91 (VHH)
VHH: EVQLVESGGGLVQPGGSLRLSCAASGFTVSDYHMSWYRQAPGKQRELVSVILSGGRTYYADSVKGRFTISRDNSKNTLYLQMNSLRAEDTAVYYCARADAIFPWFDVWGQGTLVTVSS
notes: The entry as printed includes HHHHHH; also called 09BHK

target: T1, Abeta peptide (40-amino acid Abeta peptide, SEQ ID NO: 1), biotinylated (human, N-terminal biotin or C-terminal lysine-linked biotin, separated from the peptide by a PEG6 linker); assay: BLI (Octet HTX), biotinylated Abeta on streptavidin sensors, 1 uM VHH, 1:1 fit
T1 construct: Synthesized by Genscript; also called amyloid beta; test peptide
T1 sequence (peptide, as listed by the source): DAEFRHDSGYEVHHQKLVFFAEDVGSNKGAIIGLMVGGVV
Protocol: Binding affinity was measured using Biolayer Interferometry (BLI) with a ForteBio Octet HTX instrument. Biotinylated antigen was loaded onto streptavidin biosensors at a concentration of 100 nM in kinetics buffer (PBS+1% BSA). The binding experiments were performed with the following steps: 1) baseline in kinetics buffer for 30 seconds, 2) loading of antigen for 180 seconds, to achieve a loading response of at least 1 nm, 3) baseline for 60 seconds, 4) association of 1 μM VHH for 300 seconds, and 5) dissociation into kinetics buffer for 180 seconds. Curves were fit to a 1:1 binding model using the ForteBio software. A negative control was included in all plates, which was un-transfected mammalian cells subjected to the same purification process, to account for the effect of any carryover protein contaminants from cell culture.

Kd	koff	kon	Binder
0.104 µM	0.00111 s⁻¹	10700 M⁻¹ s⁻¹	B1
0.0426 µM	0.000447 s⁻¹	10500 M⁻¹ s⁻¹	B2
0.633 µM	0.00297 s⁻¹	4680 M⁻¹ s⁻¹	B3
0.114 µM	0.000725 s⁻¹	6370 M⁻¹ s⁻¹	B4
0.214 µM	0.00133 s⁻¹	6200 M⁻¹ s⁻¹	B5
0.292 µM	0.00112 s⁻¹	3830 M⁻¹ s⁻¹	B6
0.21 µM	0.0029 s⁻¹	13800 M⁻¹ s⁻¹	B7
0.244 µM	0.000724 s⁻¹	2970 M⁻¹ s⁻¹	B8
0.367 µM	0.00268 s⁻¹	7320 M⁻¹ s⁻¹	B9
0.43 µM	0.0033 s⁻¹	7670 M⁻¹ s⁻¹	B10
0.153 µM	0.00333 s⁻¹	21800 M⁻¹ s⁻¹	B11
0.212 µM	0.00632 s⁻¹	29800 M⁻¹ s⁻¹	B12
0.0239 µM	0.000337 s⁻¹	14100 M⁻¹ s⁻¹	B13
0.189 µM	0.000882 s⁻¹	4660 M⁻¹ s⁻¹	B14
0.0399 µM	0.000443 s⁻¹	11100 M⁻¹ s⁻¹	B15
0.249 µM	0.0137 s⁻¹	55000 M⁻¹ s⁻¹	B16
0.116 µM	0.000734 s⁻¹	6320 M⁻¹ s⁻¹	B17
0.239 µM	0.00353 s⁻¹	14800 M⁻¹ s⁻¹	B18
0.328 µM	0.00105 s⁻¹	3210 M⁻¹ s⁻¹	B19
0.469 µM	0.00314 s⁻¹	6700 M⁻¹ s⁻¹	B20
0.264 µM	0.0045 s⁻¹	17000 M⁻¹ s⁻¹	B21
0.185 µM	0.00324 s⁻¹	17500 M⁻¹ s⁻¹	B22
0.0053 µM	6.73e-05 s⁻¹	12600 M⁻¹ s⁻¹	B23
0.0254 µM	0.000269 s⁻¹	10600 M⁻¹ s⁻¹	B24
0.176 µM	0.00127 s⁻¹	7170 M⁻¹ s⁻¹	B25
0.0431 µM	0.00046 s⁻¹	10700 M⁻¹ s⁻¹	B26
